Reactivation time of Taq DNA polymerase data for 1 substance are collected here from patent publication US20180298422A1.

The assay deals with Taq DNA polymerase (Thermus aquaticus) (UniProt P19821). The assay can be described thus: cell-based or functional assay.

Where only a bound is given, the exact number is not on record here.

Chain of UniProt P19821 (P19821 whole entry): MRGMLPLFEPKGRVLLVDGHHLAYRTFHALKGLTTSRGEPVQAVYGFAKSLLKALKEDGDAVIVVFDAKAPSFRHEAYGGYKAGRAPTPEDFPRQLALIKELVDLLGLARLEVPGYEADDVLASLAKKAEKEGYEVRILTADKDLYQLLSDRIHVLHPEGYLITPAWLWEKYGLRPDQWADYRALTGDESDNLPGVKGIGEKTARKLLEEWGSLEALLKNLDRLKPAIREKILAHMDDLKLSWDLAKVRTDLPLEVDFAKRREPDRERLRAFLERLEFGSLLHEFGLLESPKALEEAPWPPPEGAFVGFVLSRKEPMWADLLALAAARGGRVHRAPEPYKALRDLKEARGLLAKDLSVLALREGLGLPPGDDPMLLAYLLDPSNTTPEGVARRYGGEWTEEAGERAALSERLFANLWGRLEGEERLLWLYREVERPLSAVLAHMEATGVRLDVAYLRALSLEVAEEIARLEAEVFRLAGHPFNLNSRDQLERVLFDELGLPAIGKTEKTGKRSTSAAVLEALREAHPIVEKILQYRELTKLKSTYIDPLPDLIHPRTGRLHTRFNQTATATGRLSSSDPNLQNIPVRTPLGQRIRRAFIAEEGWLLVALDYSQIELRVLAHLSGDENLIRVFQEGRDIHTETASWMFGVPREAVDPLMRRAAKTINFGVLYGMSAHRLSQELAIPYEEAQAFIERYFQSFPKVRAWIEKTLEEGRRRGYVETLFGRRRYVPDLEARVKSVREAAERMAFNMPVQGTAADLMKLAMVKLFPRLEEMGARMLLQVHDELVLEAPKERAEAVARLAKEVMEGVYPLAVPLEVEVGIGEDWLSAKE

With JumpStart Antibody (Sigma Aldrich), the reactivation time of Taq DNA polymerase at 95 C in real-time PCR was less than 0.5 min.
